We go through 5 molecules from patent US20210087265A1 (PROGASTRINE ET CANCERS S R L, published 2021).

T1: human progastrin (human, UniProt P01350 22-101)
T1 construct: 80-residue progastrin, i.e. preprogastrin (AAB19304.1) without its 21-residue signal peptide; also called hPG; PG
T1 sequence: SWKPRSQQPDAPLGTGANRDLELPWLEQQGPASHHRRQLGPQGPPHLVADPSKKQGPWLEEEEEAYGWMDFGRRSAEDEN

B1: mAb3 (antibody, V domains shown)
VH: EVQLQQSGTVLARPGASVKMSCKASGYIFTSYWVHWVKQRPGQGLEWIGGFYPGNSDSRYNQKFKGKATLTAVTSASTAYMDLSSLTNEDSAVYFCTRRDSPQYWGQGTTLTVSS
VL: DVLMTQTPLSLPVSLGDQASISCRSSQSIVHSNGNTYLEWYLQKPGQSPKLLIYKVSNRFSGVPDRFSGSGSGTDFTLKISRLEAEDLGVYYCFQGSHVPFTFGGGTKLEIK
notes: Murine monoclonal antibody from a hybridoma; also called hybridoma 6B5B11C10
B2: mAb19 (antibody, V domains shown)
VH: DVQLQESGPGLVKPSQSLSLTCTVTGYSITSDYAWNWIRQFPGNKLEWMGYISFSGYTSYNPSLKSRISVTRDTSRNQFFLQLTSVTTEDTATYYCAREVNYGDSYHFDYWGQGTIVTVSS
VL: QLALTQSSSASFSLGASAKLTCTLSSQHRTYTIEWYQQQSLKPPKYVMEVKKDGSHSTGHGIPDRFSGSSSGADRYLSISNIQPEDEAIYICGVGDAIKGQSVFVFGGGTKVTVL
notes: Murine monoclonal antibody from a hybridoma; also called hybridoma 1B3B4F11
B3: mAb16 (antibody, V domains shown)
VH: QVQLQQSGAELVKPGASVKLSCKASGYTFTSYYMYWVKQRPGQGLEWIGEINPSNGGTNFNEKFKSKATLTVDKSSSTAYMQLSSLTSEDSAVYYCTRGGYYPFDYWGQGTTLTVSS
VL: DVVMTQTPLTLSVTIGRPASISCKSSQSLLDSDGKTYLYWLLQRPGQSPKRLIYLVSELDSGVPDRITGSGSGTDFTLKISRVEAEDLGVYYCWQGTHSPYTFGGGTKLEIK
notes: Murine monoclonal antibody from a hybridoma; also called hybridoma 1E9D9B6
B4: mAb4 (antibody, V domains shown)
VH: QVQLQQSGAELMKPGASVKISCKATGYTFSSSWIEWLKQRPGHGLEWIGEFLPGSGSTDYNEKFKGKATFTADTSSDTAYMLLSSLTSEDSAVYYCATDGNYDWFAYWGQGTLVTVSA
VL: DLVMTQTPLSLPVSLGDQASISCRSSQSLVHSSGVTYLHWYLQKPGQSPKLLIYKVSNRFSGVPDRFSGSGSGTDFTLKISRVEAEDLGVYFCSQSTHVPPTFGSGTKLEIK
notes: Murine monoclonal antibody from a hybridoma; also called hybridoma 20D2C3G2
B5: mAb13 (antibody, V domains shown)
VH: EVQLVESGGGLVQPGGSLKLSCAASGFIFSSYGMSWVRQSPDRRLELVASINTFGDRTYYPDSVKGRFTISRDNAKNTLYLQMTSLKSEDTAIYYCARGTGTYWGQGTTLTVSS
VL: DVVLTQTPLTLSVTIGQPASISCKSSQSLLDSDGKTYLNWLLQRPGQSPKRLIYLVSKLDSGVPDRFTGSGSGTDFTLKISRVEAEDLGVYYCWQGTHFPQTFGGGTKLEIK
notes: Murine monoclonal antibody from a hybridoma; also called hybridoma 2C6C3C7

The test concerns the target T1, human progastrin. The test can be described thus: epitope mapping (method not described).
For the molecule B1, the binding result is recorded as “binds”.

Regarding B2, the binding result is “binds”.

For the molecule B3, the binding result is “binds”.

For the molecule B4, the binding result is on record as “binds”.

As to B5, the binding result is given as “binds”.
